Test results from paper PMC11507893 (bioRxiv, 2024).
Where a chain is given by its changes, count along the chain named.

How the values were obtained:
[1] = biological target: T1, FLAG-tagged Mnl1 (Mnl1-FLAG) (S. cerevisiae, UniProt P38888 21-796); assay: cryo-EM structure
T1 sequence (looked up): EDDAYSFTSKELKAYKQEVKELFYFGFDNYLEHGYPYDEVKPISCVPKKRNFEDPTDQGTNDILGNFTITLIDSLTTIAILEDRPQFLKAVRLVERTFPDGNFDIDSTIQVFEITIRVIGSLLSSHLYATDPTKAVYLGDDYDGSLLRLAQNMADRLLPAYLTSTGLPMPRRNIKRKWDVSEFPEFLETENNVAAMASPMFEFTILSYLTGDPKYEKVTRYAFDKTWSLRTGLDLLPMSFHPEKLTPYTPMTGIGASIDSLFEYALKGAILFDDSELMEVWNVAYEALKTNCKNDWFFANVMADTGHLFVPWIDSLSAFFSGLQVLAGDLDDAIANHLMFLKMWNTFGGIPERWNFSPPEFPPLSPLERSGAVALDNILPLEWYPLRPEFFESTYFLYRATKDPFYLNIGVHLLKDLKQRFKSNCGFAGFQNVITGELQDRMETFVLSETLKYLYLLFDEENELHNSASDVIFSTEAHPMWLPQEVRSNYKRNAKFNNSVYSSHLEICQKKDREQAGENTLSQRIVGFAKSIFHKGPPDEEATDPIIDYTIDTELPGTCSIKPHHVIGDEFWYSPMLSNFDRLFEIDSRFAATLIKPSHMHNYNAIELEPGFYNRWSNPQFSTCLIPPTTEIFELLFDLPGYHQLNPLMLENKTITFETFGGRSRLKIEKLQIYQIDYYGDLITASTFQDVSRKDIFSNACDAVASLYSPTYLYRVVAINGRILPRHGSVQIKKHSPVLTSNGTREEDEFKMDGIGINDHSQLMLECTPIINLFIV

[2] = biological target: T2, Mnl1 mCTD mutant (L655N, F770Y, M772K), FLAG-tagged (S. cerevisiae, UniProt P38888 21-796, L655N | F770Y | M772K); assay: co-IP + SEC
T2 sequence (looked up): T1 sequence (looked up) with L635N, F750Y, M752K

[3] = biological target: T3, Mnl1(C579S), FLAG-tagged (S. cerevisiae, UniProt P38888 21-796, C579S); assay: cross-linking
T3 sequence (looked up): T1 sequence (looked up) with C559S

[4] = biological target: T4, Mnl1(C644S), FLAG-tagged (S. cerevisiae, UniProt P38888 21-796, C644S); assay: cross-linking
T4 sequence (looked up): T1 sequence (looked up) with C624S

binding result [1]: binds
binding result [2]: binds
binding result [3]: binds
binding result [4]: binds
B1: protein disulfide isomerase (Pdi1) (enzyme, S. cerevisiae, UniProt P17967 29-522, looked up)
chain: PEDSAVVKLATDSFNEYIQSHDLVLAEFFAPWCGHCKNMAPEYVKAAETLVEKNITLAQIDCTENQDLCMEHNIPGFPSLKIFKNSDVNNSIDYEGPRTAEAIVQFMIKQSQPAVAVVADLPAYLANETFVTPVIVQSGKIDADFNATFYSMANKHFNDYDFVSAENADDDFKLSIYLPSAMDEPVVYNGKKADIADADVFEKWLQVEALPYFGEIDGSVFAQYVESGLPLGYLFYNDEEELEEYKPLFTELAKKNRGLMNFVSIDARKFGRHAGNLNMKEQFPLFAIHDMTEDLKYGLPQLSEEAFDELSDKIVLESKAIESLVKDFLKGDASPIVKSQEIFENQDSSVFQLVGKNHDEIVNDPKKDVLVLYYAPWCGHCKRLAPTYQELADTYANATSDVLIAKLDHTENDVRGVVIEGYPTIVLYPGGKKSESVVYQGSRSLDSLFDFIKENGHFDVDGKALYEEAQEKAAEEADADAELADEEDAIHDEL
